Reference: patent US12123876B2, “Antibody binding to HEG1 and use of the antibody for detection and treatment of mesothelioma” (Kanagawa Prefectural Hospital Organization, priority 2016, dated 2024)
Entries after “also recorded” stand apart in the source; their conditions may differ.

Key:
[1] = tested on: Lung carcinoma, other carcinomas, soft tissue sarcoma, bone sarcoma; assay: Immunohistological staining of other carcinomas and sarcomas (detection specificity to mesothelioma); parameters: species or system human
Procedure: AMeX-fixed cell precipitates or formalin-fixed tissues were paraffin-embedded to prepare thin sections. Each of the sections was fixed to a microscope slide, and subjected to deparaffinization and dehydration with xylene and ethanol, followed by activation of an antigen under different conditions. Each section was treated with 3% hydrogen peroxide for 5 minutes to deactivate endogenous peroxidase, and then washed with PBS and blocked with 0.5% casein for 10 minutes. After 100 μL of a solution containing a primary antibody was added to each section and treated at room temperature for 2 hours, the section was washed with PBS and allowed to develop color by using a Histofine Simple Stain MAX-PO (Multi) ([…] BIOSCIENCE INC.), Ventana ultraView DAB universal kit (Roche Diagnostics K. K.), or the EnVision+kits. Each section was stained with hematoxylin and then dehydrated, and encapsulated with Malinol (MUTO PURE CHEMICALS CO., LTD.) to observe under a microscope. The conditions for activation of an antigen were as follows: at 98° C. for 40 minutes for calretinin, mesothelin, and the SKM9-2 antigen; and at 95° C. for 64 minutes for cytokeratin 5/6 (CK5/6), podoplanin, and Wilms' tumor gene product 1 (WT-1). The following activation solutions were used: 10 mM Tris buffer (pH 9.0) containing 1 mM ethylenediamine tetraacetate (EDTA) for calretinin, CK5/6, and podoplanin; and 10 mM citrate buffer (pH 6.0) containing 0.1% TWEEN® 20 (polyethylene glycol sorbitan monolaurate, polyoxyethylenesorbitan monolaurate) for WT-1, mesothelin, and the SKM9-2 antigen. The following primary antibodies were used: a rabbit anti-calretinin polyclonal antibody (PAD:DC8) (Life Technologies Japan Ltd., Tokyo, Japan) for calretinin; a mouse anti-cytokeratin 5,6 monoclonal antibody (D5/16B4) ([…] BIOSCIENCE INC.) for CK5/6; a mouse anti-human mesothelin monoclonal antibody (5B2) (Leica Microsystems, Inc., Bannockburn, IL) for mesothelin; a mouse anti-podoplanin monoclonal antibody (D2-40) (Roche Diagnostics K. K.) for podoplanin; and a mouse anti-human WT-1 monoclonal antibody (6F-H2) (Roche Diagnostics K. K.) for WT-1.
Subsequently, the detection characteristics of the SKM9-2 antibody for other carcinomas were compared with those of other antibodies to confirm the detection specificity to mesothelioma. In this measurement, the detection specificity of each antibody was measured for several carcinomas: gastric carcinoma, colorectal carcinoma, breast carcinoma, ovarian carcinoma, renal cell carcinoma, and urothelial carcinoma, which are more likely to present problems in differential diagnosis of mesothelioma, as “Other carcinomas”; carcinosarcoma, liposarcoma, rhabdomyosarcoma, leiomyosarcoma, fibrosarcoma, synovial sarcoma, gastrointestinal stromal sarcoma (GIST), Ewing's sarcoma, alveolar soft part sarcoma (ASPS), solitary fibrous tumor, malignant peripheral nerve sheath tumor (MPNST), angiosarcoma, epithelioid hemangioendothelioma, epithelioid angiosarcoma, and biphasic synovial sarcoma as “Soft tissue sarcoma”; and chondrosarcoma and osteosarcoma as “Bone sarcoma”.

[2] = tested on: HEG1 protein (purified from ACC-MESO4 or recombinant soluble HEG1); assay: Western blot / dot blot reactivity of antibodies with HEG1 protein; format: binding, human
Procedure: A massive amount of ACC-MESO4 was cultured, and purification of an antigen from the cell lysate was performed. Cells from 240 10-cm dishes were solubilized with 50 mM Tris buffer (pH 8.0) containing 1% TRITON™ X-100 (detergent), 1% CHAPS, 1 mM EDTA, 50 mM NaCl, and protease inhibitor (Complete, Roche Life Science), and then centrifuged. The resulting supernatant was dialyzed with 20 mM acetate buffer (pH 5.0) at 4° C. for 18 hours to afford an acidic precipitate. The precipitate was extracted with 20 mM Tris buffer (pH 7.2) containing 0.1% TWEEN® 20 (polyethylene glycol sorbitan monolaurate, polyoxyethylenesorbitan monolaurate) and 150 mM NaCl and centrifuged, and the resulting supernatant was concentrated by using an Amicon Ultra-15, 100 kDa (Merck Millipore) and subjected to solution exchange with 20 mM Tris buffer (pH 8.0) containing 6 M guanidine hydrochloride. To the concentrated solution, tris(2-carboxyethyl)phosphine hydrochloride with a final concentration of 10 mM was added, and the resultant was heated at 60° C. for 30 minutes, and iodoacetamide with a final concentration of 40 mM was then added thereto, and reacted at room temperature for 3 hours. The reaction solution was subjected to gel filtration chromatography (SUPEROSE® 6 INCREASE (prepacked column) 10/300 GL (GE Healthcare)) in 20 mM Tris buffer (pH 8.0) containing 6 M guanidine hydrochloride and 0.05% TWEEN® 20 (polyethylene glycol sorbitan monolaurate, polyoxyethylenesorbitan monolaurate), and fractions positive for dot blot were collected. The sample was dialyzed with 25 mM phosphate buffer (pH 7.0) containing 4 M urea and 0.05% TWEEN® 20 (polyethylene glycol sorbitan monolaurate, polyoxyethylenesorbitan monolaurate) at room temperature overnight, and applied to a Mono Q 5/50 GL (GE Healthcare). The column was washed with 25 mM phosphate buffer (pH 7.0) containing 4 M urea and 0.05% TWEEN® 20 (polyethylene glycol sorbitan monolaurate, polyoxyethylenesorbitan monolaurate), and thereafter elution was performed with an NaCl salt concentration gradient of 0 to 1 M. Fractions strongly positive for dot blot were collected, and dialyzed with 25 mM phosphate buffer (pH 7.2) containing 150 mM NaCl and 0.05% TWEEN® 20 (polyethylene glycol sorbitan monolaurate, polyoxyethylenesorbitan monolaurate) at room temperature overnight, and applied to 1 mL of WGA-SEPHAROSE® (wheat germ agglutinin-crosslinked, beaded-form of agarose) (J-OIL MILLS, Inc.). After washing with buffer, elution was performed with 25 mM phosphate buffer (pH 7.2) containing 0.2 M N-acetylglucosamine, 150 mM NaCl, and 0.05% TWEEN® 20 (polyethylene glycol sorbitan monolaurate, polyoxyethylenesorbitan monolaurate), and the eluent was concentrated with a Centricon (YM-30) (Millipore). Gel filtration chromatography (SUPEROSE® 6 INCREASE (prepacked column) 10/300 GL (GE Healthcare)) was performed in 25 mM phosphate buffer (pH 7.2) containing 3 M GdnHCI and 0.5% CHAPS, and fractions strongly positive for dot blot were dialyzed with 20 mM NH4HCO3 containing 0.5% CHAPS at room temperature overnight to afford a purified antigen.
The dot blot was performed as follows. A PVDF membrane (Immobilon-P, Merck Millipore) was soaked in methanol, and then washed and impregnated with pure water. The hydrophilized PVDF membrane was placed on a filter paper containing water to avoid air inclusion, removed of excessive moisture, and soaked with 1 to 5 μL of the sample in dots fed by a micropipette. After the membrane was dried at room temperature overnight, the membrane was hydrophilized again with methanol and pure water, and blocked with 20 mM Tris buffer (pH 7.4) containing 5% skim milk, 0.1% TWEEN® 20 (polyethylene glycol sorbitan monolaurate, polyoxyethylenesorbitan monolaurate), and 150 mM NaCl (blocking buffer) at room temperature for 1 hour. […]

B1: SKM9-2 antibody: mouse monoclonal IgG1 kappa antibody binding glycosylated HEG1; heavy chain SEQ ID NO: 2, light chain SEQ ID NO: 4 (antibody, listed as Mus musculus)
heavy: MGWSSIILFLVATTTGVHSQVQLQQPGAELVRPGASVKLSCKASGFSFTTYWITWVKQRPGQGLEWIGMIHPSDSETRLSQTFKDKATLTVDKSSNTAYMQFSSPTSEDSAVYYCVRDFDVWGAGTTVTVSSAKTTPPSVYPLAPGSAAQTNSMVTLGCLVKGYFPEPVTVTWNSGSLSSGVHTFPAVLQSDLYTLSSSVTVPSSTWPSETVTCNVAHPASSTKVDKKIVPRDCGCKPCICTVPEVSSVFIFPPKPKDVLTITLTPKVTCVVVDISKDDPEVQFSWFVDDVEVHTAQTQPREEQFNSTFRSVSELPIMHQDWLNGKEFKCRVNSAAFPAPIEKTISKTKGRPKAPQVYTIPPPKEQMAKDKVSLTCMITDFFPEDITVEWQWNGQPAENYKNTQPIMDTDGSYFVYSKLNVQKSNWEAGNTFTCSVLHEGLHNHHTEKSLSHSPGK
light: MKLPVRLLVLMFWIPASISDVLMTQTPLSLPVSLGDQASISCRSSQNIVHNNGNTYLGWYLQKPGQSPKLLIFKVSNRFSGVPDRFSGSGSGTDFTLKISRVEAEDLGVYYCFQGSHIPRTFGGGTRLEIKRADAAPTVSIFPPSSEQLTSGGASVVCFLNNFYPKDINVKWKIDGSERQNGVLNSWTDQDSKDSTYSMSSTLTLTKDEYERHNSYTCEATHKTSTSPIVKSFNRNEC
Bone sarcoma (positive cases/cases) ([1]; chondrosarcoma and osteosarcoma): 0/20 | Positive cases, epithelioid hemangioendothelioma ([1]; epithelioid hemangioendothelioma): 1/6 | Other carcinomas (positive cases/cases) ([1]; gastric, colorectal, breast, ovarian, renal cell, urothelial carcinoma): 1/60 | Positive cases, leiomyosarcoma ([1]; leiomyosarcoma): 1/10 | Lung carcinoma (positive cases/cases) ([1]; lung carcinoma): 0/98 | Specificity (%) ([1]; mesothelioma specificity over all non-mesothelioma tumors): 99.0% | Soft tissue sarcoma (positive cases/cases) ([1]; soft tissue sarcoma): 2/132 | Positive cases, urothelial carcinoma ([1]; urothelial carcinoma): 1/10 | Recognition of purified antigen band at approximately 400 kDa ([2]; Western blotting, antigen purified from ACC-MESO4): recognized | Reactivity with antigen after N-glycanase (PNGase F) treatment ([2]; dot blot): did not cause the antibody to lose the reactivity | Reactivity with antigen after Proteinase K treatment ([2]; dot blot): caused the antibody to lose the reactivity | Reactivity with antigen treated with neuraminidase ([2]; dot blot, HEG1 protein purified from ACC-MESO4, neuraminidase treatment): did not bind; also recorded: weakened
